Measured values as given in patent EP4680648A1 (dated 2026).

How the values were obtained:
[1] = target: T1, dog HER3 expressed on CHO-S cells (CHO-dHER3 cells) (dog, UniProt P21860 20-1342 (human entry)); experiment: flow cytometry on CHO-dHER3 cells
T1 chain: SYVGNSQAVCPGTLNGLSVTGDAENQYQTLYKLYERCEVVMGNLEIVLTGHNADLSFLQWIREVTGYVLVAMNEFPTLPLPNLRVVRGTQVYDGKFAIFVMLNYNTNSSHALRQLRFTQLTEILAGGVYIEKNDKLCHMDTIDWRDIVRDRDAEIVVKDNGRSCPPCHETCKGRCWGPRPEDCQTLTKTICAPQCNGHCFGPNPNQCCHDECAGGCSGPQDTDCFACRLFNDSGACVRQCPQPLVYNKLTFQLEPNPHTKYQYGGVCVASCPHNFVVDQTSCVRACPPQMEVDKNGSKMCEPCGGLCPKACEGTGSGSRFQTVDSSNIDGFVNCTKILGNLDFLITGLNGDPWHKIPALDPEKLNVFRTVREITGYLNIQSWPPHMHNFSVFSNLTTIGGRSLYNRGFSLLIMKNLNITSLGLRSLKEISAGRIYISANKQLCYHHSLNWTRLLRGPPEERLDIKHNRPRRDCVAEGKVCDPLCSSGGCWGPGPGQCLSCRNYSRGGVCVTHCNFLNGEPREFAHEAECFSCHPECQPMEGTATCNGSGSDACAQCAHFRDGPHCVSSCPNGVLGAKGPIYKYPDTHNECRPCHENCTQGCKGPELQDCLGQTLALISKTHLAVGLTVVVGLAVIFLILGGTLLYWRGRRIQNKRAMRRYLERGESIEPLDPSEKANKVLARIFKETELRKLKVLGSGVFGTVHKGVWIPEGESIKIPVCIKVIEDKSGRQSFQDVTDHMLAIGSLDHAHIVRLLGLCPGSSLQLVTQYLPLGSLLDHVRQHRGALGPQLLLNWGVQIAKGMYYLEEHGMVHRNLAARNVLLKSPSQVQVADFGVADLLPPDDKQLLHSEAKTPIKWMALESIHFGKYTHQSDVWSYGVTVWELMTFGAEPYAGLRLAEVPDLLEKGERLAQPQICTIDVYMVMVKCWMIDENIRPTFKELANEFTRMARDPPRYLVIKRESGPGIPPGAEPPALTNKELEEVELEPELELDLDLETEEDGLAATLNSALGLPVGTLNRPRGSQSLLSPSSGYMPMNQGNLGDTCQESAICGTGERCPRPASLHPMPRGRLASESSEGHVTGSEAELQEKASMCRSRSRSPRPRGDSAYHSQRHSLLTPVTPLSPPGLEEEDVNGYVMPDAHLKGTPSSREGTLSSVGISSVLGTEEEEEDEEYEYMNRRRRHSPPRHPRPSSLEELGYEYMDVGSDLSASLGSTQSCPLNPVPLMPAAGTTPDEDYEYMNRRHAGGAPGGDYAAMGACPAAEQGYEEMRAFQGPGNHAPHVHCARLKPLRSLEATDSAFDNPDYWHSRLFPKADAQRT

[2] = target: human HER3 expressed on CHO-S cells (CHO-hHER3 cells) (human, UniProt P21860 20-643); experiment: flow cytometry on CHO-hHER3 cells
[3] = target: T2, His-tagged human HER3 protein (hHER3, ACRO Biosystems Inc., Cat#: ER3-H5223) (human, UniProt P21860 20-643); experiment: SPR (Biacore 8K), antibody captured on Protein A chip, His-tagged hHER3 as analyte
T2 construct: Bought protein; also called hHER3-His; not shown: His tag

[4] = target: T3, monkey (Macaca fascicularis) HER3 expressed on CHO-S cells (CHO-fasHER3 cells) (monkey (Macaca fascicularis), UniProt P21860 20-643 (human entry)); experiment: flow cytometry on CHO-fasHER3 cells
T3 construct: also called monkey HER3
T3 chain: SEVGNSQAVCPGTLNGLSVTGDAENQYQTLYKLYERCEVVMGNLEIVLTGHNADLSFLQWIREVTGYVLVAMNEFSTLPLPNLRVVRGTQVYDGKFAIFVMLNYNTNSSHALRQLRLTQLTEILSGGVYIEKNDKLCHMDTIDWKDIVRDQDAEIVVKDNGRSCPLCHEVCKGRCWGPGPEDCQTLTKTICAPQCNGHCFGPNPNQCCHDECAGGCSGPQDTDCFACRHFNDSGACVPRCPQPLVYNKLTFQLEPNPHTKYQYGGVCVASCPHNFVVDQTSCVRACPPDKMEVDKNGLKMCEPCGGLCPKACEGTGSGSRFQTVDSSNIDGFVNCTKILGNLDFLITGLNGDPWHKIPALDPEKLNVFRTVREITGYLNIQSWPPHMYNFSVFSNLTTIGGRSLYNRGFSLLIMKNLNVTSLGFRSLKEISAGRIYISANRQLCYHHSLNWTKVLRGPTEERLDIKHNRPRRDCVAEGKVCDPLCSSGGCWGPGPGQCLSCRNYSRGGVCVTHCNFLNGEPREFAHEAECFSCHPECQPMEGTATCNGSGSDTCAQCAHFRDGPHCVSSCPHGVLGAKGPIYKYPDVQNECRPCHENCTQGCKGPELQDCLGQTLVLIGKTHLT

[5] = target: T2, His-tagged human HER3 protein (hHER3, …); experiment: SPR (Biacore 8K), antibody captured on Protein A chip, His-tagged HER3 as analyte
[6] = target: mouse HER3 expressed on CHO-S cells (CHO-mHER3 cells) (mouse, UniProt Q61526 20-641); experiment: flow cytometry on CHO-mHER3 cells

Measured: binding result

mouse HER3 expressed on CHO-S cells (CHO-mHER3 cells), sequence (Q61526 20-641): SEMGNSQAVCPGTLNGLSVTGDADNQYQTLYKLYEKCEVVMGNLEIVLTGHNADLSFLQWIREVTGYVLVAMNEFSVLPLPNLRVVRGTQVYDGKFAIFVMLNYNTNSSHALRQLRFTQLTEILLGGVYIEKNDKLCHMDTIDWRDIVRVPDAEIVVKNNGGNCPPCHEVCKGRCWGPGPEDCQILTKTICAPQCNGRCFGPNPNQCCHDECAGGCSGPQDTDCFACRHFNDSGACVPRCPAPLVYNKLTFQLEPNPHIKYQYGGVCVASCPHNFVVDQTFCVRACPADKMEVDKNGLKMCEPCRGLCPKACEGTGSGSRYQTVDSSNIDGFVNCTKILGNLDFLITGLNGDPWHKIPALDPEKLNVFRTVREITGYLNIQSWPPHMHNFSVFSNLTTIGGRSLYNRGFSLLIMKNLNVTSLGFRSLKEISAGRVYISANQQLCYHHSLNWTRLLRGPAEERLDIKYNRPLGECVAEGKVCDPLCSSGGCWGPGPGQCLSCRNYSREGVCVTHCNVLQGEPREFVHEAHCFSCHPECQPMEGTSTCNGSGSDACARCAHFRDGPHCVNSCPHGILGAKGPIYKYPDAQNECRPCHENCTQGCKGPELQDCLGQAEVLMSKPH

B1: anti-HER3 antibody 1C5 (antibody, human IgG1, V domains shown)
VH: QVQLVESGGGVVQPGKSLRLSCAASGFTFSRSGMHWVRQAPGKGLEWVALISFDGSNKYYADSVKGRFTISRDNSKNTLNLQMNSLRAEDTAVYYCAKGGFGVVIYDAFDIWGHGTMVTVSS
VL: not shown
notes: common light chain
binds: [1] | [2] | [3] | [4]

B2: anti-HER3 antibody 1D6 (antibody, human IgG1, V domains shown)
VH: EVQLVQSGPGLVKPSETLSLTCTVSGGSISSNNYYWAWIRQPPGKGLEWIGSLYYTGRAYYKSSLKSRVTISVDTSNDQFSLRLTSVTAADTAIYYCARHDCGNTCLNWFDRWGQGTLVTVSS
VL: not shown
notes: common light chain
binds: [1] | [5] | [2] | [6] | [4]

B3: anti-HER3 antibody 3G6 (antibody, human IgG1, V domains shown)
VH: QVQLVQSGPVLVKPTETLTLTCTVSGFSLSNIRMGVSWIRQPPGKALEWLAHIFSNDDKSYSTSLKSRLTISKDTSKSQVVLTMTNVDPVDTATYYCTRMRYSGGPFDYWGQGTLVTVSS
VL: not shown
notes: common light chain
binds: [1] | [2] | [6] | [3] | [4]

B4: anti-HER3 antibody 1B2 (antibody, V domains shown)
VH: QVQLVQSGPVLVKPTETLTLTCTVSTFSLSNARMGVSWIRQPPGKALEWLAHIFSNDDKSYSPSLKSRLTISKDTSKTQVVLTMTNMDPVDTATYYCSRMRYSGGPFDYWGQGSLVTVSS
VL: not shown
notes: common light chain
binds: [1] | [2] | [6] | [3] | [4]

B5: anti-HER3 antibody 3E1 (antibody, human IgG1, V domains shown)
VH: EVQLVQSGPVLAKPTETLTLTCTVSGFSLSNIRMGVSWIRQPPGKALEWLAHIFSNDDKSYSPSLKNRLTISKDTSKSQVVLTMTTMDPMDTATYYCTRMKYSGGPFDYWGQGTLVTVSS
VL: not shown
notes: common light chain
binds: [1] | [2] | [6] | [3] | [4]
